One experiment deals with Cyno PD1. Kind of experiment: flow cytometry. A general note: In flow cytometry, cells or beads pass a laser one at a time.
The target of experiment [1] is T1, soluble PD-1 (biotinylated PD-1; expi293 expressed soluble PD1-avi) (UniProt Q15116 25-170, biotinylated (Avidity's biotinylation kit, avi tag) where loaded on SA sensors or used to stain yeast). Description: ELISA; variable antigen coating. (An ELISA detects its analyte on a solid surface through an enzyme-linked reagent.)
T1 sequence (Q15116 25-170): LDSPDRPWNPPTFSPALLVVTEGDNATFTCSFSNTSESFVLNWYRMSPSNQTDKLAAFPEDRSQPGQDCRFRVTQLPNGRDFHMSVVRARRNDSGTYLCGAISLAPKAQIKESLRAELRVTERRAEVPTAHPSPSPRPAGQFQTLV
The target of experiment [2] is T1, soluble PD-1 (biotinylated PD-1; …). Kind of experiment: ELISA; constant antigen coating.
The target is the same in experiment [3]. Description: yeast display flow cytometry.
Experiment [4] addresses human PD-1 on cells (transfected Expi293 cells, PHA-cultured T cells, cells of the Promega PD1-PDL1 bioassay, … (UniProt Q15116 25-288)). Description: flow cytometry.

We go through four molecules from patent US20220275088A1 (published 2022).

As usually defined, the EC50 is the concentration that produces a half-maximal response.

Chain of human PD-1 on cells (transfected Expi293 cells, PHA-cultured T cells, cells of the Promega PD1-PDL1 bioassay, … (Q15116 25-288): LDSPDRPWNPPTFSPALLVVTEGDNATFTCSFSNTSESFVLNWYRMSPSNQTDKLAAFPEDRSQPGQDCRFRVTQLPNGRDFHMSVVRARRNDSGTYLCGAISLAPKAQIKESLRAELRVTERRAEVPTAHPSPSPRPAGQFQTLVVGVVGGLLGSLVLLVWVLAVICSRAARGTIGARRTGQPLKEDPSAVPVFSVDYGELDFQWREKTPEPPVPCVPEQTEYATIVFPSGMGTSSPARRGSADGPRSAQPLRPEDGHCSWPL

B1: P4#B3 (Fc fusion)
VH: QVQLVQSGGGLVQPGRSLRLSCAASGFTFDDYAMHWVRQAPGKGLEWVSGISWNSGSIGYADSVKGRFTVSRDNAKNSLYLQMNSLRAEDTAVYYCASDYGDKYYYYGMDVWGKGTTVTVSS
VL: QPGLTQPPSASGTPGQRVTISCSGSSSNIGSNTVNWYQQFPGKAPKLLIFNDNQRPSGVPDRFSASKSGTSASLAISGLQSEDEADYYCAAWDGGLNGRGVFGGGTKLTVL
Regarding B1, the EC50 in the experiment with Cyno PD1 came to 0.072 µg/mL.

B2: P4-B3 IgG1 wild type monomer (antibody, V domains shown)
VH: B1 VH
VL: QPGLTQPPSASGTPGQRVTISCSGSSSNIGSNTVNWYQQFPGKAPKLLIFNDNQRPSGVPDRFSASKSGTSASLAISGLQSEDEADYYCAAWDGGLNGRGVFGGGTKLTVLG
As to B2, the EC50 in experiment [1] was 0.514 µg/mL; in experiment [2], 0.0407 µg/mL.

B3: P4-B3 scFv (scFv, V domains shown)
VH: B1 VH
VL: B1 VL
B3 yielded an EC50 in experiment [3] of 101 nM.

B4: P4-B3 minibody (scFv-Fc) (Fc fusion)
VH: B1 VH
VL: B1 VL
As to B4, the EC50 in experiment [4] worked out at 0.097 µg/mL.
